In this assay the target is T1, hen egg-white lysozyme (hen, UniProt P00698 19-147).
T1 construct: In solution in phosphate-buffered saline, captured in a sandwich between the first and second peptide molecules; also called HEL; target substance 173
Kind of assay: sandwich on TMR element: immobilized scFv, HEL, Fab on magnetic beads; magnetic read-out.

T1 sequence (P00698 19-147): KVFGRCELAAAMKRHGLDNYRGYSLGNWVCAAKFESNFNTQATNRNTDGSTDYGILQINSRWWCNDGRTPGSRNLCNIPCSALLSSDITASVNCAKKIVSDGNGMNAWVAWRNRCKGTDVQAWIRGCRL

B1: HyHEL10 scFv (single chain Fv of an anti-HEL antibody) (scFv)
scFv: DIVLTQSPATLSVTPGNSVSLSCRASQSIGNNLHWYQQKSHESPRLLIKYASQSISGIPSRFSGSGSGTDFTLSINSVETEDFGMYFCQQSNSWPYTFGGGTKLIITAGGGGSGGGGSGGGGSDIQLQESGPSLVKPSQTLSLTCSVTGDSITSDYWSWIRKFPGNRLEYMGYVSYSGSTYYNPSLKSRISITRDTSKNQYYLDLNSVTTEDTATYYCANWDGDYWGQGTLVTVSA
notes: Purified as a His-tag-fused polypeptide; In the assay it was immobilized on the silicon film or substrate via aminosilane and glutaraldehyde; also called scFv of the anti-HEL antibody; scFv of the HEL antibody
With B1, the binding result is on record as “binds”.
